Test results: article PMC10720262 (2023)
Positions count from the first letter of the chain named.

B1: CL-462911 (antibody, V domains shown)
VH: QVHLVESGGGVVQPGRSLTLSCAASGFTFSSCGMHWVRQAPGKGLEWLAVIWYDGSNKYYADSVKGRFTISRDNSKNTLYLQMNSLRAEDTAVYYCARDGGYVRDYYYGMDVWGQGTTVTVSS
VL: not shown
modifications: peptides N-terminally acetylated and C-terminally amidated
B2: Ky224 (antibody, V domains shown)
VH: QVQLVESGGGVVQPGRSLRLSCAASGFTFSVYGMHWVRQAPGKGLEWVAVIWYDGSNKIYADSVKGRFTISRDNSKNTLYLQMDSLSAADTAVYYCAKIGSSSFDYWGQGTLVIVSS
VL: DIVMTQTPLSSPVTLGQPASISCRSSQSLVHSNGITYLSWLQQRPGQPPRLLLYEISNRFSGVPDRFSGSGTGTDFTLKISRVEAEDVGVYYCMQTTQFPITFGQGTRLEIK
modifications: peptides N-terminally acetylated and C-terminally amidated
B3: CL-508731 (antibody, V domains shown)
VH: QVQLVESGGGVVQPGRSLRLSCVASGFTFSNNGMHWVRQAPGKGLEWVAIIWHDGSNKFYAESVRGRFTISRDNSNNTLYLQMNSLRAEDTAVYYCARDRMFGSGSWNYFDPWGQGTLVTVSS
VL: EIVLTQSPATLSLSPGERATLSCRASQSISTYLAWYQQKPGQAPRLLIYDASNRATGIPARFSGSGSGTDFTLTISSLEPEDFAVYYCQQRSYWWTFGQGTKVEIK
modifications: peptides N-terminally acetylated and C-terminally amidated
B4: CL-509993 (antibody, V domains shown)
VH: B3 VH with H53Y, F59Y, E62D, R65K, S106T
VL: B3 VL with I29V, S30T, Y93N
modifications: peptides N-terminally acetylated and C-terminally amidated
B5: Ky315 (antibody, V domains shown)
VH: QVQLVESGGGVVQPGRSLRLSCAASGFTLSNYGVHWVRQAPGTGLEWVALIWYDGSNKFYADSVKGRFTISRDNSMDIVYLQMNNLRAEDTALYYCVRPGIAAAGSNYYAMDVWGQGTAVTVSS
VL: EIVMTQSPATLSMSPGERATLSCRASQSVGSDLAWFQQKPGQAPRLLIYGAFTRATGIPARFSGSGSGSEFTLTISSLQSEDFAVYYCQQYNRWWTFGQGTKVEMK
modifications: peptides N-terminally acetylated and C-terminally amidated
B6: CL-509930 (antibody, V domains shown)
VH: QVQLVESGGGVVQPGRSLRLSCAASGFTFSSYGMHWVRQAPGKGLEWVAIIWHDGSNKYYADSVKGRFTISRDNSKNTLYLQMNSLRAEDTAVYYCARDYSSFYFDYWGQGTLVTVSS
VL: not shown
modifications: peptides N-terminally acetylated and C-terminally amidated
B7: CL-437899 (antibody, V domains shown)
VH: QEQLVESGGGVVQPGRSLRLSCEVSGFTFSNHGLHWVRQAPGKGLEWVAIIWYDGSNKFYAESVKGRFTISRDNSKNRMYLEMNSLRVEDSAVYYCVRAYSRSSSDYKYGMDVWGQGTTVTVSS
VL: DIQMTQSPSTLSASVGDRVIITCRASQSISSWLAWYQQRPGKAPELLIYKASSLETGVPSRFSGSGSGTEFTLTISSLQPDDFATYFCQQYSSYWTFGQGTKVEIK
modifications: peptides N-terminally acetylated and C-terminally amidated
B8: CL-511905 (antibody, V domains shown)
VH: QVQLVESGGGVVQPGRSLRLSCAASGFTFSGSGMHWVRQAPGRGLEWVAIIWYDGSHKYYVDSVQGRFIISRDNSKNTLYLEMNSLRVEDTAVYYCVRAYPSGSSNDKYGMDVWGQGTTVTVSS
VL: not shown
modifications: peptides N-terminally acetylated and C-terminally amidated
B9: CL-513094 (antibody, V domains shown)
VH: B8 VH with S85N
VL: not shown
modifications: peptides N-terminally acetylated and C-terminally amidated
B10: CL-512871 (antibody, V domains shown)
VH: QVLLVESGGGVVQPGRSLRLSCAASGFTFSNYGMHWVRQAPGKGLEWVALIRYDGINKFYADSVKGRFTISRDNSENTLYMQINSLRAEDTAMYYCAKAYNTSSDYYYGMDVWGQGTTVTVSS
VL: DIQMTQSPSTLSASVGDRVTITCRASQSISTWLAWYQQKPGKAPKLLIYKASRLESGVPSRFSGSGSGTEFTLTISSLQPDDLATYYCQQFNSYWTFGQGTKVEIR
modifications: peptides N-terminally acetylated and C-terminally amidated
B11: CL-449869 (antibody, V domains shown)
VH: QVQLVESGGGAVQPGRSLRLSCAASGFTFSYNGMHWVRQAPGKGLEWVAIIWYDGSNKFYADSVKGRFTISRDNSKDTLYLEMNSLRAEDTAIYYCARAWNYDDKKYSMDVWGQGTTVTVSS
VL: B10 VL with T31S, R53S, L83F, F91Y, S93Y, Y94F
modifications: peptides N-terminally acetylated and C-terminally amidated
B12: CL-460406 (antibody, V domains shown)
VH: QIQLVESGGGVVQPGRSLRLSCAASGFTFSNSGMHWIRQAPGKGLEWVTIIWYDGSNKYYADSVKGRFTISRDNSKNTLYLQMNSLRAEDTAIYYCARAYSSSSDDYYGMDVWGQGTTVTVSS
VL: B10 VL with T31S, R53S, E70D, L83F, N92Y, S93N, R106T
modifications: peptides N-terminally acetylated and C-terminally amidated
B13: CL-513809 (antibody, V domains shown)
VH: QVQLVESGGGVVQPGRSLRLSCAASGFIFSNYGMYWVRQTPDKGLEWVALIWYDGNNKFYSDSVKGRFTVSRDNSKNTLYLQMNSLRDEDTALYYCARAGYFYGSGSSLDKWGQGTLVTVSS
VL: B10 VL with T20S, T31I, R53S, L83F, F91Y, R106K
modifications: peptides N-terminally acetylated and C-terminally amidated
B14: CL-510453 (antibody, V domains shown)
VH: QVQLVESGGGVVQPGRSLRLSCAASGFTFSSYGMHWVRQAPDKGLEWVAIIWYDGSKKYYADSVKGRFTVSRDNSKNTLYLQMNSLRAEDTAVFYCARSFDYESGGFYSFDYWGQGTLVSVSS
VL: B10 VL with T31S, K50R, R53S, E55A, L83F, F91Y, I105F, R106K
modifications: peptides N-terminally acetylated and C-terminally amidated
B15: CL-444469 (antibody, V domains shown)
VH: QVQLVESGGGVVQPGRSLRVSCEVSGLTFSNYGMHWVRQAPGKRLEWVAIIWYDGSNKYYADSVKGRFTISRDNSKNTLYLQMNSLRAEDTAVYYCARSYGSGSRGDYYGMDVWGQGTTVTVSS
VL: B7 VL with I20T, Y36F, R39K, E45K, T56S, F87Y, S92Y
modifications: peptides N-terminally acetylated and C-terminally amidated
B16: CL-532151 (antibody, V domains shown)
VH: QVQLVESGGGVVQPGGSLRLSCAASGFTFSGSGMHWVRHAPGKGLEWVAIIWYDGSNKFYADSVKGRFTISRDNSRNTLYLQMNSLRAEDTAVYYCARAYVSGNYGDKYGMDVWGQGTTVTVSS
VL: B7 VL with I20T, S31N, Y36F, R39K, E45K, T56S, S76N, S92N, S93Y
modifications: peptides N-terminally acetylated and C-terminally amidated
B17: CL-444691 (antibody, V domains shown)
VH: QVQLVESGGGVVQPGRSLRLSCAASGFTFSNYGMHWVRQAPGKGLEWVAVIWYDGSNKFYADSVKGRFTISRDNSKNTLYLQMNSLRAEDTAVYYCARDGGYNKNSGSYGWFDPWGQGTLVTVSS
VL: B10 VL with I29V, R53S, L83F, F91Y, W95F, K102R, V103L, R106K
modifications: peptides N-terminally acetylated and C-terminally amidated
B18: CL-510418 (antibody, V domains shown)
VH: QVQLVESGGGVVQPGQSLRLSCEASGFTFSNYGMHWVRQAPVKGLEWVAIIWFDGSYKYYADSVKGRFTVSRDNSKNTLYLQMDSLRAEDTAVYYCARARKGQRSDYYGSETSYTFDNWGQGTLVTVSS
VL: B10 VL with S30N, T31S, L46F, R53I, V58I, L83F, F91Y, R106K
modifications: peptides N-terminally acetylated and C-terminally amidated
B19: CL-514174 (antibody, V domains shown)
VH: B16 VH with G16R, A23V, H39Q, A40S, K65Q, R76K, A88V, A92G, V101L
VL: B7 VL with I20T, Y36F, R39K, E45K, T56S, S76N, S92N, S93Y
modifications: peptides N-terminally acetylated and C-terminally amidated
B20: Ky15.2 (antibody, V domains shown)
VH: QVLLVESGGGVVQPGTSLRLSCVASGFSFSTYGMHWVRQSPGKGLEWVAIIWYDGGNKFYADSVQGRFTVSRDNSKNTLYLQMNSLRAEDTAVYYCAKAYRTSLDKKYGMDVWGQGTTVTVSS
VL: B7 VL with I20T, S30A, R39K, E45K, T56S, Q79H, Y91F, S92T
modifications: peptides N-terminally acetylated and C-terminally amidated
B21: CL-510020 (antibody, V domains shown)
VH: QVQLVESGGGVVQPGRSLRLSCAASGFTFSSFGMYWVRQAPGKGLEWVALIWYDGSNQYYADSVKGRFTISRDNSKNTLYLQMNSLRAEDTAVYYCARAGYFYGSGSPLDYWGQGTLVTVPS
VL: B7 VL with R18G, I20T, R39K, E45K, K50M, T56S, F87Y, S92Y, S93N
modifications: peptides N-terminally acetylated and C-terminally amidated
B22: CL-438096 (antibody, V domains shown)
VH: QVVLVESGGGVVQPGRSLRLSCEASGFIFSSRGMHWVRQTPGKGLEWVAIIWYDGSNKFYADSVKGRFTISRDNSKNTLYLQMNSLRAEDTAVYYCARSYRTSLDKKYGMDVWGQGTTVTVSS
VL: B7 VL with I20T, R39K, E45K, T56S, Q79H, S92N
modifications: peptides N-terminally acetylated and C-terminally amidated
B23: CL-449007 (antibody, V domains shown)
VH: QVQVVESGGGVVQPGRSLRLSCAASGFTFSNYGMHWVRQAPGKGLEWVAIIWYDGSHKFYANSVKGRFTISRDNSKNTLFLQMNSLRAEDTAVYYCARVGNGNSDWTDAFDIWGQGTMVTVSS
VL: B10 VL with S30N, T31S, R53S, L83F, F91Y, S93T, R106K
modifications: peptides N-terminally acetylated and C-terminally amidated
B24: CL-510373 (antibody, V domains shown)
VH: QVQLVESGGGVVQPGRSLKLSCAASGFTFSSYGMHWVRQAPGRGLEWVSIIWYDGSNKFYSDSVQGRFTISRDDSKNTLYLQMNSLRAEDTAMYYCAMVANYTISSGAFDIWGHGTMVTVSS
VL: B7 VL with I20T, S31N, R39K, P40S, E45K, T56S, S92K, S93T
modifications: peptides N-terminally acetylated and C-terminally amidated
B25: CL-513279 (antibody, V domains shown)
VH: QVQLVESGGGVVQPGRSLRLSCAASGFTFSNFGMHWVRQAPVKGLEWVALIWYDGSNKFYADSVQGRFTISRDNSKNILYLQMNSLRAEDTAVYYCAKVEARGVDYHSYGMDVWGQGTTVTVSS
VL: B7 VL with I20T, R39K, E45Q, T56S, F87Y, S92K, S93Y
modifications: peptides N-terminally acetylated and C-terminally amidated
B26: CL-513083 (antibody, V domains shown)
VH: QVQLVESGGGVVQPGRSLRLSCAASGFTFSNYGMHWVRQAPGRGLEWVAIIWYDGSNKYYEDSVKGRFTISRDNSKNTLYLQMNSLRAEDTAVYYCARAQWLDQRHYHYTMDVWGQGTTVTVSS
VL: not shown
modifications: peptides N-terminally acetylated and C-terminally amidated

target: PfCSP full length (Plasmodium falciparum (isolate NF54), UniProt P19597); assay: ELISA AUC
Sequence (P19597 20-375): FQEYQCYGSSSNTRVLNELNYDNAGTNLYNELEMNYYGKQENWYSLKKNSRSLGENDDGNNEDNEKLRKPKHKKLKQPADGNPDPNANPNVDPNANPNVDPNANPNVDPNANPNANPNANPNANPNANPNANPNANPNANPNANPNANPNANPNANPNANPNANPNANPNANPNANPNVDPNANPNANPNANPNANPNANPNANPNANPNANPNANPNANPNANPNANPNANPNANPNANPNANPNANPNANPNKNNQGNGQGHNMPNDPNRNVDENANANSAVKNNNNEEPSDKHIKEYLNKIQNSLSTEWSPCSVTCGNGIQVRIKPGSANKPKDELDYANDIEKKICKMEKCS

**Q.** B1 was tested. Which binding score did it give?
**A.** The binding score was 1.4.

**Q.** Which binding score does the source give for B2 here?
**A.** The binding score was 2.2.

**Q.** B3 was tested. Which binding score did it give?
**A.** The binding score was 2.31.

**Q.** With B4 as the binder, how does the binding score read?
**A.** Its binding score is 2.15.

**Q.** B5 was tested. Which binding score did it give?
**A.** Its binding score is 2.7.

**Q.** B6 was tested. Which binding score did it give?
**A.** Its binding score is 1.99.

**Q.** With B7 as the binder, how does the binding score read?
**A.** The binding score was 2.4.

**Q.** How did the binding score turn out when B8 was run?
**A.** The binding score was 2.61.

**Q.** For B9, which binding score is on record?
**A.** The binding score was 2.14.

**Q.** B10 was tested. Which binding score did it give?
**A.** The binding score was 2.21.

**Q.** Which binding score does the source give for B11 here?
**A.** Its binding score is 2.2.

**Q.** For B12, which binding score is on record?
**A.** The binding score was 2.3.

**Q.** Which binding score does the source give for B13 here?
**A.** Its binding score is 2.34.

**Q.** How did the binding score turn out when B14 was run?
**A.** The binding score was 2.07.

**Q.** How did the binding score turn out when B15 was run?
**A.** The binding score was 2.4.

**Q.** Which binding score does the source give for B16 here?
**A.** The binding score was 2.53.

**Q.** How did the binding score turn out when B17 was run?
**A.** The binding score was 2.3.

**Q.** Which binding score does the source give for B18 here?
**A.** The binding score was 2.46.

**Q.** Which binding score does the source give for B19 here?
**A.** Its binding score is 2.12.

**Q.** Which binding score does the source give for B20 here?
**A.** Its binding score is 2.4.

**Q.** How did the binding score turn out when B21 was run?
**A.** The binding score was 2.45.

**Q.** B22 was tested. Which binding score did it give?
**A.** The binding score was 2.6.

**Q.** Which binding score does the source give for B23 here?
**A.** Its binding score is 2.4.

**Q.** B24 was tested. Which binding score did it give?
**A.** The binding score was 2.37.

**Q.** B25 was tested. Which binding score did it give?
**A.** Its binding score is 2.06.

**Q.** For B26, which binding score is on record?
**A.** Its binding score is 2.24.
